In experiment [1] the target is T1, monkey PD-1 with mFc (monkey).
T1 construct: also called monkey PD-1-mFc; monkey PD-1 dimer
T1 chain: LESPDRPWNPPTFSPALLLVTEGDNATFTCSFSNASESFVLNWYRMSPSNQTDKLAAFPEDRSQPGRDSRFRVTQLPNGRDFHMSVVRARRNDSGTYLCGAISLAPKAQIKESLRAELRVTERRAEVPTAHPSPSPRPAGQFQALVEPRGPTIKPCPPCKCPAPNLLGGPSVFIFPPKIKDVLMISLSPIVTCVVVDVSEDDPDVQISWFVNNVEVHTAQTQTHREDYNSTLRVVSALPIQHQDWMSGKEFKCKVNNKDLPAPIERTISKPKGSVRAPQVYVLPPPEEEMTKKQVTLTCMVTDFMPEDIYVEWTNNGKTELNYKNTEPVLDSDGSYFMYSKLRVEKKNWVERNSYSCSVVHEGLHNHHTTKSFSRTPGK
The experiment is described as follows: SPR, captured mAb, 25 C. (SPR reads the build-up and loss of mass on a sensor chip optically.)

The target in experiment [2] is T1, monkey PD-1 with mFc. The experiment is described as follows: SPR, captured mAb, 37 C.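 Further: Real-time Biacore surface plasmon resonance biosensor readout of PD-1 reagent binding to purified anti-PD-1 monoclonal antibodies.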
For experiment [3], the target named is T2, full length human PD-1 on HEK293/hPD-1 cells (human, UniProt Q15116 25-288). The experiment is described as follows: FACS, 100 nM mAb, HEK293/hPD-1 cells.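 Further: antibodies incubated with cells for 15-30 min on ice, bound antibody detected through a secondary F(ab′)2 by flow cytometry, with parental HEK293 cells tested in parallel.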 On the technique in general: Flow cytometry measures light scatter and fluorescence of single cells or particles in a stream.
Experiment [4] concerns the target T3, recombinant human PD-1 dimer expressed with a C-terminal mouse IgG2a Fc tag (human).
T3 construct: also called hPD-1-mFc
The experiment is described as follows: competition ELISA: 1.5 nM hPD-1-mFc to coated hPD-L1-hFc.

The target of experiment [5] is T4, dimeric biotinylated human PD-1 protein with a C-terminal human Fc tag (human, biotinylated (sites not given)).
T4 construct: also called biot-hPD-1-hFc
The experiment is described as follows: competition ELISA: 200 pM biot-hPD-1-hFc to coated hPD-L1-mFc. A general note: An ELISA detects its analyte on a solid surface through an enzyme-linked reagent.

Experiment [6] addresses T5, recombinant human PD-1 expressed with a C-terminal human IgG1 Fc tag (human).
T5 construct: also called hPD-1-hFc; hPD1-hFc
The experiment is described as follows: SPR Biacore 3000: 100 nM hPD-1.hFc + 500 nM mAb to captured hPD-L1.mFc.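 Further: inhibition study with anti-PD-1 mAbs, SPR responses tracked in real time and read at the close of each step.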

Experiment [7] concerns the target T6, recombinant human PD-L1 expressed with a C-terminal mouse IgG2a Fc tag (human).
T6 construct: also called hPD-L1-mFc; hPD-L1.mFc
The experiment is described as follows: SPR Biacore 3000: 500 nM mAb alone (no hPD-1.hFc) over captured hPD-L1.mFc surface, control.

Experiment [8] has as its target T3, recombinant human PD-1 dimer expressed …. The experiment is described as follows: competition ELISA: 1.5 nM hPD-1-mFc to coated hPD-L1-hFc; * below theoretical bottom 7.5E-10 M.
In experiment [9] the target is T2, full length human PD-1 on HEK293/hPD-1 …. The experiment is described as follows: FACS, 100 nM mAb.
Experiment [10] deals with PD-1 chimera: extracellular domain of human PD-1 with trans-membrane and cytoplasmic domains of human CD300a, … (human, UniProt Q9UGN4 181-299, limits assumed). The experiment is described as follows: cell-based or functional assay.
Experiment [11] deals with T2, full length human PD-1 on HEK293/hPD-1 …. The experiment is described as follows: FACS dose response, HEK293/hPD-1 cells.

The values that follow come from patent US20150203579A1 (Regeneron, published 2015).

B1: H4xH9128P2 (antibody, V domains shown)
VH: QVQLQESGPGLVKPSETLSLTCTVSGGSISSYHWNWIRQSPGKGLEWIGYIYYIGSTDYNPSLESRVTISVDTSKNQFSLKLSSVTAADTAVYYCARVPVGATGASDVWGQGTMVTVSS
VL: not shown
notes: human IgG4 Fc with 2 or more amino acid changes (US20100331527)
As a reminder, the Kd is a measure of binding affinity in units of concentration. One may read the koff as a measure of how fast the partners let go of each other. As usually defined, the kon is the rate constant with which the complex forms. By IC50 is commonly meant the concentration needed to halve the response being measured. Take B1: in the experiment with monkey PD-1 with mFc [1], the “100 nM Monkey PD-1-mFc Bound (RU)” value came out at 64 RU, the Kd was determined as 1570 pM, the koff turned out to be 0.000124 s⁻¹ and the kon came to 78700 M⁻¹ s⁻¹. The molecule also gave a t1/2 with monkey PD-1 with mFc [1] of 94 min. Further, in the experiment with monkey PD-1 with mFc [2], the “100 nM Monkey PD-1-mFc Bound (RU)” value is 60 RU, the Kd turned out to be 4360 pM, the koff is 0.000816 s⁻¹ and the kon came to 187000 M⁻¹ s⁻¹. In the experiment with monkey PD-1 with mFc [2], this molecule displayed a t1/2 of 14 min. In experiment [3], this molecule returned an MFI of 9080 MFI. In [4], the “% blocking at 200 nM antibody” value was found to be 98%. Besides, in experiment [5], the “% blocking at 50 nM antibody” value stood at 97% and the IC50 came to 190 pM. In addition, in [6], the “% Blocking” value worked out at 105% and the “binding of the mixture (RU)” value was -5 RU. For the same molecule, the “500 nM of anti-PD-1 monoclonal antibody (RU)” value in [7] was -5 RU. The IC50 in experiment [8] was found to be 640 pM.

B2: H4H9057P2 (antibody, V domains shown)
VH: EVQLVESGGGLVQSGRSLRLSCAASGFTFDDYAMHWVRQPPGKGLEWVSGINWNRGRTGYADSVKGRFTISRDNAKNSLYLQMNDLRVEDTALYYCAKAEQWLDEGYFDYWGQGTLVTVSS
VL: not shown
notes: fully human; H4H prefix (human IgG4 Fc)
One may read the EC50 as the midpoint of the concentration-response curve. Consider B2, for which the “ratio of MFI HEK293/hPD-1 to HEK293 parental cells” value in experiment [9] is 46.1. Further, in experiment [10], the “Concentration (M) of Antibody at 150% activation” value was 2.68e-08 M and the “Emax mean [%] @ 100 nM” value was found to be 212%. Moreover, in the experiment with monkey PD-1 with mFc [1], the “100 nM Monkey PD-1-mFc Bound (RU)” value was 75 RU, binding was characterised by a dissociation constant (Kd) of 2980 pM, the koff stood at 0.000303 s⁻¹ and the kon amounted to 102000 M⁻¹ s⁻¹. This molecule also showed a t1/2 with monkey PD-1 with mFc [1] of 38 min. In the experiment with monkey PD-1 with mFc [2], the “100 nM Monkey PD-1-mFc Bound (RU)” value amounted to 28 RU, the Kd was 29600 pM, the koff stood at 0.00477 s⁻¹ and the kon was 161000 M⁻¹ s⁻¹. In the experiment with monkey PD-1 with mFc [2], this molecule returned a t1/2 of 2.4 min. This molecule registered an MFI in [3] of 6500 MFI. In addition, in [11], the concentration for a half-maximal effect (EC50) was determined as 236 pM and the “Max Geom. Mean MFI @ 100 nM” value was found to be 20000 MFI. Also, the “% blocking at 200 nM antibody” value in experiment [4] amounted to 98%. In experiment [6], the “% Blocking” value is 43% and the “binding of the mixture (RU)” value was determined as 57 RU. Moreover, the 50% inhibitory concentration (IC50) in experiment [8] was 190 pM.

B3: H4xH9045P (antibody, V domains shown)
VH: EVQLVESGGGLVQPGRSLRLSCAASGFTFDDYDMHWVRQAPGKGLEWVSGSGWNRGSLGYADSVKGRFTISRDNAKKSLYLQMNSVRVEDTALYYCAKGFVVVSAAYFDYWGQGTLVTVSS
VL: not shown
notes: human IgG4 Fc with 2 or more amino acid changes (US20100331527); also called H4xH9045P2
Regarding B3, in [9], the “ratio of MFI HEK293/hPD-1 to HEK293 parental cells” value is 93.7. For the same molecule, in experiment [10], the “Concentration (M) of Antibody at 150% activation” value is 2.23e-08 M and the “Emax mean [%] @ 100 nM” value came out at 176%. Besides, in the experiment with monkey PD-1 with mFc [1], the “100 nM Monkey PD-1-mFc Bound (RU)” value was determined as 78 RU, the Kd turned out to be 1720 pM, the koff is 0.000168 s⁻¹ and the kon turned out to be 97800 M⁻¹ s⁻¹. This molecule gave a t1/2 with monkey PD-1 with mFc [1] of 69 min. Further, in the experiment with monkey PD-1 with mFc [2], the “100 nM Monkey PD-1-mFc Bound (RU)” value stood at 65 RU, the Kd was 5660 pM, the koff worked out at 0.00136 s⁻¹ and the kon came to 241000 M⁻¹ s⁻¹. The molecule further yielded a t1/2 with monkey PD-1 with mFc [2] of 8 min. The same molecule came in with an MFI in [3] of 8880 MFI. Also, in experiment [11], the EC50 is 91.7 pM and the “Max Geom. Mean MFI @ 100 nM” value was determined as 24700 MFI. The “% blocking at 200 nM antibody” value in [4] turned out to be 98%. Moreover, in experiment [5], the “% blocking at 50 nM antibody” value is 95% and the IC50 was determined as 130 pM. In addition, in experiment [6], the “% Blocking” value came to 105% and the “binding of the mixture (RU)” value is -5 RU. For the same molecule, in experiment [7], the “500 nM of anti-PD-1 monoclonal antibody (RU)” value is -4 RU. For the same molecule, the IC50 in [8] stood at 280 pM.
